Measured values reported in patent US20040058457 (published 2004).

B1: NZ-23 420 bp fragment with 23 tandem Zif268 sites separated by NRE sites (dsDNA)
DNA 1: AAGGGTTCAGCGTGGGCG
DNA 2: CGCCCACGCTGAACCCTT
B2: NZ-23 (as added to Au-GSH/GST-Zif268 assay) (dsDNA)
DNA 1: AAGGGTTCAGCGTGGGCG
DNA 2: CGCCCACGCTGAACCCTT

Key:
[1] = target: T1, GST-Zif268 (PED107) (mouse, UniProt P08046 SEQ:1-90); assay: EMSA; 1% agarose gel, RT 10 min, 0-4 uL of 1 mg/mL protein; shorter DNA trapped in well with increasing protein
[2] = target: T1, GST-Zif268 (PED107); assay: EMSA; protein bound to Au-GSH nanoparticles; DNA co-migrated with Au particles; 1% agarose, 1xTAE, RT 10 min

| Binder | binding result [1] | binding result [2] |
| --- | --- | --- |
| B1 | binds | – |
| B2 | – | binds |
